{"source": "patent US20220381793A1", "about": "“COMPOSITIONS AND METHODS FOR IDENTIFYING MHC-II BINDING PEPTIDES” (priority 2021, published 2022)", "molecular_target": "“empty” DR4-LZ (DRA*01:01/DRB1*04:01 ectodomains with Jun/Fos leucine zippers, non-covalent heterodimer displayed on yeast through Aga2p) (human)"}
{"substance": "S862-888 (printed “5862-888”) (from UniProt P0DTC2 862-878) (peptide)", "values": [{"measurement": "% competition", "result": 75, "unit": "%"}]}
